# From patent US9314532B2, “Drug delivery vehicle” (University of North Texas Health Science Center, priority 2012, dated 2016)
# Ends that are not written are not given here.
# Experiments:
# [1] = paclitaxel encapsulation efficiency into myristoyl peptide nanoparticles (3H-paclitaxel); type: physicochemical; conditions: after centrifugation at 5,000 RPM for 5 minutes
# Procedure: Paclitaxel encapsulation efficiency into myristoyl peptide nanoparticles based on measurements of 3H-paclitaxel is shown in FIG. 8. […] In order to clarify the preparations, the samples were centrifuged at 5,000 RPM for 5 minutes.
# [2] = mRNA encapsulation, particle size; type: physicochemical; conditions: mRNA/phospholipid particles upon addition of the MYR-5A peptide
# Source text: In an embodiment of the present invention, ˜2 kb mRNA was encapsulated to improve its functionality and bioavailability. mRNA was combined with phospholipid in the presence of detergent and particles of approximately 3 μm diameter were obtained. […] The smaller particle is suitable for efficient delivery of the mRNA to target cells and for therapeutic applications.
Sequence,initial amount of paclitaxel retained [1],particle size [2]
"EKLKALLEKLLAKLKELL (also: myristoyl, place not given here) [compound 39877]",60%,
"DWLKAFYDKVAEKLKEAFPDWAKAAYDKAAEKAKEAA (also: myristoyl, place not given here) [MYR-5A, control peptide]",,~500 nm
